Where two headings read alike, the source gives them in different places. Starred links: 1 amine or outer side, 2 acyl side, 3 side chain; linkers in the order of their positions; H or OH if unused. Non-standard residues stand in square brackets, D forms with d. No end group written: not given here. *: point of attachment. Thr(Bzl) = O-benzyl-threonine, C[C@@H](OCc1ccccc1)[C@H](N[*:1])C(=O)[*:2]; Ser(Bzl) = O-benzyl-serine, O=C([C@H](COCc1ccccc1)N[*:1])[*:2]; dPhe(4-Cl) = N[C@H](Cc1ccc(Cl)cc1)C(=O)O; Heptanoyl = CCCCCCC(=O)*; Ahp = NCCCCCCC(=O)O

The target of assay [1] is T1, MC1-R of B-16 mouse melanoma cells (mouse, UniProt Q01727 1-315).
T1 construct: whole, on cells; also called B16-F10 (MC1-R)
In words: radioligand competition, [I125]-NDP-α-MSH, B-16 membranes. On the technique in general: Loss of bound radioactivity is the signal in a displacement assay; it reports binding, not function.

Assay [2] concerns the target T2, human melanocortin 3 receptor (human, UniProt P41968 1-323).
T2 construct: whole, on cells; also called hMC3-R; MC3-R
Description: radioligand competition, [I125]-NDP-α-MSH, hMC3-R membranes.

Assay [3] concerns the target T3, human melanocortin 4 receptor (human, UniProt P32245 1-332).
T3 construct: whole, on cells; cAMP assays used whole cells; also called hMC4-R; MC4-R
Description: radioligand competition, [I125]-NDP-α-MSH, hMC4-R membranes.

Assay [4] concerns the target T4, human melanocortin 5 receptor (human, UniProt P33032 1-325).
T4 construct: whole, on cells; also called hMC5-R; MC5-R
In words: radioligand competition, [I125]-NDP-α-MSH, hMC5-R membranes.

The target of assay [5] is T3, human melanocortin 4 receptor. In words: cell-based or functional assay.
For assay [6] the target is unchanged. Description: cell-based or functional assay. The source holds these as a separate data set.
Assay [7] concerns the target T2, human melanocortin 3 receptor. In words: radioligand competition, [I125]-NDP-α-MSH, hMC3-R membranes. The source holds these as a separate data set.
The target of assay [8] is T3, human melanocortin 4 receptor. Description: cell-based or functional assay. This is another data set of the same source.
The target is the same in assay [9]. Description: radioligand competition, [I125]-NDP-α-MSH, hMC4-R membranes. This is another data set of the same source.
Assay [10] addresses T4, human melanocortin 5 receptor. In words: radioligand competition, [I125]-NDP-α-MSH, hMC5-R membranes. The source holds these as a separate data set.
In assay [11] the target is T1, MC1-R of B-16 mouse melanoma cells. Description: radioligand competition, [I125]-NDP-α-MSH, B-16 membranes. The source holds these as a separate data set.
Assay [12] has as its target T4, human melanocortin 5 receptor. In words: radioligand competition, [I125]-NDP-α-MSH, hMC5-R membranes. This is another data set of the same source.
Assay [13] has as its target T2, human melanocortin 3 receptor. Description: radioligand competition, [I125]-NDP-α-MSH, hMC3-R membranes. The source holds these as a separate data set.
The target in assay [14] is T1, MC1-R of B-16 mouse melanoma cells. Description: radioligand competition, [I125]-NDP-α-MSH, B-16 membranes. The source holds these as a separate data set.
For assay [15], the target named is T3, human melanocortin 4 receptor. In words: radioligand competition, [I125]-NDP-α-MSH, hMC4-R membranes. The source holds these as a separate data set.
The target is the same in assay [16]. In words: cell-based or functional assay. This is another data set of the same source.

T4 sequence (P33032 whole entry): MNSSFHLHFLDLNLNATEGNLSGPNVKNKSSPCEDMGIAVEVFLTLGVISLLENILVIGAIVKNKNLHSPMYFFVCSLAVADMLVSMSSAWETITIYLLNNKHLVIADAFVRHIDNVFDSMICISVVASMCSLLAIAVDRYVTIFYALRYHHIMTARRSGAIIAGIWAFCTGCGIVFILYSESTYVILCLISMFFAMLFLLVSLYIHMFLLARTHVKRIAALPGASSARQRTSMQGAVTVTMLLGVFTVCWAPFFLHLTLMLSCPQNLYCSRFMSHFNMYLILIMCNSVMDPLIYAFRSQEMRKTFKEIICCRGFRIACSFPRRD
T1 sequence (Q01727 whole entry): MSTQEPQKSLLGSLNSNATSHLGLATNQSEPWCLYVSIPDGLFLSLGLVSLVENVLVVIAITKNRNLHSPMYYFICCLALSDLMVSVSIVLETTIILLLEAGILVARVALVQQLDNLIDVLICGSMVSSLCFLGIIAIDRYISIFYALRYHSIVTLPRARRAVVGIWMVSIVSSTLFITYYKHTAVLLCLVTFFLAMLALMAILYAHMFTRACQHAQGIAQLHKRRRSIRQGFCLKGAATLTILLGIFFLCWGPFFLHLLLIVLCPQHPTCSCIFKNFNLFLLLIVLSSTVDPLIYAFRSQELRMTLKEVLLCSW
T3 sequence (P32245 whole entry): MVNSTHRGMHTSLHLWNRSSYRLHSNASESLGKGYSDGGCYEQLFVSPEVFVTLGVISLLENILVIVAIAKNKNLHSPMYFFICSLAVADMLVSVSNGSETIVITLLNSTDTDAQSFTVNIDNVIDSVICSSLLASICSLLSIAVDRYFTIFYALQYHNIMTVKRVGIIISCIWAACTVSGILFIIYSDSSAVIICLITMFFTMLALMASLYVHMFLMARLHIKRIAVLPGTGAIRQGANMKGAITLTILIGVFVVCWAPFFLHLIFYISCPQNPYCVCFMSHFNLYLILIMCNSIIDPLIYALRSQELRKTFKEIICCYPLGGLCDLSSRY
T2 sequence (P41968 whole entry): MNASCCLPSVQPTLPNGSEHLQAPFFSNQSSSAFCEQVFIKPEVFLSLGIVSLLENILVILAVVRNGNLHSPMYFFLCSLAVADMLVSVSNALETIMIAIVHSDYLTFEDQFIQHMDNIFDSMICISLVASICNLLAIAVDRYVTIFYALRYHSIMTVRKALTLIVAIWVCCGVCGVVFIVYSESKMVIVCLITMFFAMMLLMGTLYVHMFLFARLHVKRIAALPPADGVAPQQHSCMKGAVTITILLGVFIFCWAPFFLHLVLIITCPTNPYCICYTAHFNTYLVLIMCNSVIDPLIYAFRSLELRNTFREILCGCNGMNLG

B1: Heptanoyl-Thr(Bzl)-D-Phe(4-Cl)-Arg-Trp-NH2 (peptide)
peptide: Heptanoyl-[Thr(Bzl)][dPhe(4-Cl)]RW-NH2
SMILES: CCCCCCC(=O)N[C@H](C(=O)N[C@H](Cc1ccc(Cl)cc1)C(=O)N[C@@H](CCCNC(=N)N)C(=O)N[C@@H](Cc1c[nH]c2ccccc12)C(N)=O)[C@@H](C)OCc1ccccc1
notes: also called Compound No. 23
The term Ki denotes a dissociation constant, usually derived from enzyme kinetics or from competition with a known ligand. Low values mean a stronger hold on the target, high ones a looser hold on the target. As for B1, the Ki in [1] was determined as 747 nM; in assay [2] it was 374 nM; in [3] it was 21 nM; in assay [4] it was 292 nM. Besides, the “EC50 (nM), normal system (cAMP)” value in assay [5] is greater than 1000 nM. The “intrinsic activity, normal system (cAMP)” value in assay [5] is 0.4. Further, the “EC50 (nM) (cAMP), High Receptor Density System” value (“EC50 (nM) (cAMP)” below) in assay [6] was determined as 184 nM.

B2: NH2-(CH2)6-C(=O)-Ser(Bzl)-D-Phe(4-Cl)-Arg-Trp-Ala-NH2 (peptide)
peptide: [Ahp][Ser(Bzl)][dPhe(4-Cl)]RWA-NH2
modifications: N-terminus assumed
SMILES: C[C@H](NC(=O)[C@H](Cc1c[nH]c2ccccc12)NC(=O)[C@H](CCCNC(=N)N)NC(=O)[C@@H](Cc1ccc(Cl)cc1)NC(=O)[C@H](COCc1ccccc1)NC(=O)CCCCCCN)C(N)=O
notes: also called Compound No. 15
Take B2: the Ki in assay [7] was determined as 35 nM; in assay [9], 2 nM; in assay [10], 112 nM; in assay [11], 142 nM. For the same molecule, the “EC50 (nM) (cAMP)” value in [8] amounted to 55 nM. Also, the “EC50, normal system (cAMP)” value in assay [5] was greater than 1000 nM. Also, the “intrinsic activity, normal system (cAMP)” value in [5] was less than 0.1.

B3: NH2-(CH2)6-C(=O)-Ser(Bzl)-D-Phe(4-Cl)-Arg-Trp-Asp-Phe-NH2 (peptide)
peptide: [Ahp][Ser(Bzl)][dPhe(4-Cl)]RWDF-NH2
modifications: N-terminus assumed
SMILES: N=C(N)NCCC[C@H](NC(=O)[C@@H](Cc1ccc(Cl)cc1)NC(=O)[C@H](COCc1ccccc1)NC(=O)CCCCCCN)C(=O)N[C@@H](Cc1c[nH]c2ccccc12)C(=O)N[C@@H](CC(=O)O)C(=O)N[C@@H](Cc1ccccc1)C(N)=O
notes: also called Compound No. 14
Turning to B3, the Ki in assay [12] worked out at 405 nM; in assay [13], 76 nM; in [14], 242 nM; in [15], 5 nM. Moreover, the “EC50, normal system (cAMP)” value in assay [5] was found to be 238 nM. In addition, the “intrinsic activity, normal system (cAMP)” value in assay [5] was found to be 0.5. The “EC50 (nM) (cAMP)” value in assay [16] stood at 141 nM.

The record behind these values is patent publication US20090081197A1 (PALATIN TECHNOLOGIES, published 2009).
